Laboratory results as given in the supplement of paper PMC9112550, “Optimization of the antimicrobial peptide Bac7 by deep mutational scanning” (BMC Biology, 2022).

Each sequence was assayed on Escherichia coli TOP10 (assay: shrunken log2 fold change of peptide-encoding DNA abundance (4.5 h post-induction vs induction); higher = less antimicrobial activity (less host growth inhibition)). Settings: time post-induction: 4.5 h; library: site-saturation at positions 5, 18, 19, 20.
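Also: peptides expressed intracellularly from a pBAD plasmid library in pooled LB shake-flask culture, induced with 0.3% L-arabinose, DNA abundance read by NGS, three biological replicates, DESeq2 with apeglm shrinkage.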

Row | Sequence | shrunken log2 fold change
1 | RRIRMRPPRLPRPRPRPRFCPRP | 1.63
2 | RRIRMRPPRLPRPRPRPFQDPRP | -0.235
3 | RRIRSRPPRLPRPRPRPFQKPRP | -0.00295
4 | RRIRERPPRLPRPRPRPSGFPRP | 0.0785
5 | RRIRKRPPRLPRPRPRPDVSPRP | -0.382
6 | RRIRIRPPRLPRPRPRPFLKPRP | -0.341
7 | RRIRRRPPRLPRPRPRPVMTPRP | 0.573
8 | RRIRYRPPRLPRPRPRPELDPRP | -0.165
9 | RRIRTRPPRLPRPRPRPAEEPRP | 0.0505
10 | RRIRVRPPRLPRPRPRPMIVPRP | 0.109
11 | RRIRCRPPRLPRPRPRPIWIPRP | -0.291
12 | RRIRTRPPRLPRPRPRPWIYPRP | -0.0134
13 | RRIRGRPPRLPRPRPRPTDYPRP | -0.00915
14 | RRIRVRPPRLPRPRPRPRGWPRP | 0.666
15 | RRIRHRPPRLPRPRPRPVDHPRP | -0.0462
16 | RRIRQRPPRLPRPRPRPASCPRP | 0.182
17 | RRIRTRPPRLPRPRPRPAYAPRP | 0.0376
18 | RRIRQRPPRLPRPRPRPGDVPRP | -0.222
19 | RRIRDRPPRLPRPRPRPSMPPRP | -0.164
20 | RRIRARPPRLPRPRPRPDYNPRP | -0.57
21 | RRIRQRPPRLPRPRPRPESPPRP | 0.0606
22 | RRIRLRPPRLPRPRPRPGNAPRP | 0.0676

Row | Sequence | shrunken log2 fold change
23 | RRIRLRPPRLPRPRPRPPSLPRP | 0.0267
24 | RRIRNRPPRLPRPRPRPQTFPRP | -0.0594
25 | RRIRLRPPRLPRPRPRPKLDPRP | -0.0265
26 | RRIRERPPRLPRPRPRPLDGPRP | -0.0344
27 | RRIRQRPPRLPRPRPRPMMQPRP | -0.313
28 | RRIRDRPPRLPRPRPRPCCFPRP | 0.395
29 | RRIRFRPPRLPRPRPRPPYKPRP | -0.279
30 | RRIRQRPPRLPRPRPRPTSSPRP | 0.088
31 | RRIRDRPPRLPRPRPRPKYVPRP | 0.13
32 | RRIRMRPPRLPRPRPRPEYSPRP | 0.0257
33 | RRIRNRPPRLPRPRPRPMASPRP | -0.0269
34 | RRIRTRPPRLPRPRPRPHMLPRP | -0.389
35 | RRIRARPPRLPRPRPRPVGGPRP | 0.571
36 | RRIRTRPPRLPRPRPRPAQFPRP | -0.0946
37 | RRIRVRPPRLPRPRPRPLAMPRP | 0.209
38 | RRIRWRPPRLPRPRPRPYYEPRP | -0.742
39 | RRIRIRPPRLPRPRPRPGSFPRP | -0.0206
40 | RRIRERPPRLPRPRPRPLNLPRP | -0.312
41 | RRIRKRPPRLPRPRPRPCDCPRP | -0.0743
42 | RRIRIRPPRLPRPRPRPWWMPRP | -0.0772
43 | RRIRQRPPRLPRPRPRPKPEPRP | -0.0759
44 | RRIRERPPRLPRPRPRPSRNPRP | -0.207

Row | Sequence | shrunken log2 fold change
45 | RRIRIRPPRLPRPRPRPCNKPRP | -0.47
46 | RRIRRRPPRLPRPRPRPWPCPRP | 0.133
47 | RRIRQRPPRLPRPRPRPQYWPRP | -0.0582
48 | RRIRGRPPRLPRPRPRPFRLPRP | -0.194
49 | RRIRDRPPRLPRPRPRPVYFPRP | -0.447
50 | RRIRIRPPRLPRPRPRPARFPRP | -0.0256
51 | RRIRMRPPRLPRPRPRPFAAPRP | 0.789
52 | RRIRVRPPRLPRPRPRPQDDPRP | -0.006
53 | RRIRKRPPRLPRPRPRPHARPRP | 0.709
54 | RRIRARPPRLPRPRPRPFLIPRP | -0.367
55 | RRIRLRPPRLPRPRPRPIMDPRP | -0.0403
56 | RRIRVRPPRLPRPRPRPKWGPRP | 0.155
57 | RRIRRRPPRLPRPRPRPIQYPRP | -0.00028
58 | RRIRYRPPRLPRPRPRPAHHPRP | -0.602
59 | RRIRYRPPRLPRPRPRPGGYPRP | -0.00146
60 | RRIRRRPPRLPRPRPRPHILPRP | -0.68
61 | RRIRLRPPRLPRPRPRPPHCPRP | 0.177
62 | RRIRFRPPRLPRPRPRPIQFPRP | -0.000317
63 | RRIRARPPRLPRPRPRPFGLPRP | 2.49
64 | RRIRKRPPRLPRPRPRPINGPRP | 0.00103
65 | RRIRKRPPRLPRPRPRPIKAPRP | 0.211
66 | RRIRFRPPRLPRPRPRPRQAPRP | 0.128

Row | Sequence | shrunken log2 fold change
67 | RRIRRRPPRLPRPRPRPQVPPRP | 0.11
68 | RRIRYRPPRLPRPRPRPQPRPRP | 0.463
69 | RRIRCRPPRLPRPRPRPLGQPRP | 0.16
70 | RRIRQRPPRLPRPRPRPLCPPRP | -0.334
71 | RRIRQRPPRLPRPRPRPKWNPRP | -0.216
72 | RRIRARPPRLPRPRPRPSKYPRP | -0.464
73 | RRIRWRPPRLPRPRPRPQACPRP | 0.145
74 | RRIRPRPPRLPRPRPRPTHQPRP | 0.615
75 | RRIRPRPPRLPRPRPRPLKEPRP | -0.228
76 | RRIRQRPPRLPRPRPRPWMAPRP | -0.147
77 | RRIRTRPPRLPRPRPRPVNFPRP | -0.484
78 | RRIRDRPPRLPRPRPRPCPSPRP | 0.114
79 | RRIRDRPPRLPRPRPRPYIQPRP | -0.161
80 | RRIRERPPRLPRPRPRPVKRPRP | 0.025
81 | RRIRARPPRLPRPRPRPCTFPRP | -0.365
82 | RRIRLRPPRLPRPRPRPMVGPRP | -0.135
83 | RRIRLRPPRLPRPRPRPCQRPRP | -0.00788
84 | RRIRARPPRLPRPRPRPMKHPRP | -0.00244
85 | RRIRRRPPRLPRPRPRPYFYPRP | -0.683
86 | RRIRLRPPRLPRPRPRPAAEPRP | 0.432
87 | RRIRHRPPRLPRPRPRPMWDPRP | -0.0134
88 | RRIRCRPPRLPRPRPRPDCFPRP | 0.182

Row | Sequence | shrunken log2 fold change
89 | RRIRYRPPRLPRPRPRPCWCPRP | -0.0193
90 | RRIRDRPPRLPRPRPRPGYRPRP | 0.000964
91 | RRIRVRPPRLPRPRPRPQVDPRP | 0.00887
92 | RRIRLRPPRLPRPRPRPRHSPRP | 0.0207
93 | RRIRRRPPRLPRPRPRPPGMPRP | 0.821
94 | RRIRARPPRLPRPRPRPSSFPRP | -0.196
95 | RRIRIRPPRLPRPRPRPNFEPRP | -0.218
96 | RRIRWRPPRLPRPRPRPDWPPRP | 0.332
97 | RRIRRRPPRLPRPRPRPWVAPRP | 0.219
98 | RRIRRRPPRLPRPRPRPYWHPRP | -0.484
99 | RRIRYRPPRLPRPRPRPSIWPRP | -1.31
100 | RRIRCRPPRLPRPRPRPCYPPRP | -0.743
101 | RRIRLRPPRLPRPRPRPPYKPRP | -0.292
102 | RRIRRRPPRLPRPRPRPFAFPRP | 0.0757
103 | RRIRHRPPRLPRPRPRPDTSPRP | -0.0188
104 | RRIRLRPPRLPRPRPRPAMLPRP | -0.0377
105 | RRIRHRPPRLPRPRPRPQREPRP | -0.0507
106 | RRIRERPPRLPRPRPRPENDPRP | -0.0725
107 | RRIRCRPPRLPRPRPRPLYCPRP | -0.593
108 | RRIRCRPPRLPRPRPRPMGKPRP | 0.0173
109 | RRIRQRPPRLPRPRPRPQPPPRP | 0.194
